From paper PMC4243253

Tested on: N[C@@H](CC(=O)c1ccccc1NC=O)C(=O)O
Test: purified protein
Settings: 0.1 M sodium phosphate, pH 7.4, 20 μM ZnCl2, 25°C

“PaKynB-His (Pseudomonas aeruginosa PAO1)” showed a Km of 980 ± 130 µM, a Vmax of 0.148 µmol/min and a kcat of 114 s⁻¹. The kcat/Km was 116000 M⁻¹ s⁻¹.
